The target in assay [1] is T1, anti-PTK7 antibody Ab181.
T1 construct: Unmasked parent IgG1kappa; also called Ab181 IgG1kappa
Briefly: phage display selection of peptide binders of Ab181 (Screen 2, XnCXnCXn library).

In assay [2] the target is T2, recombinant human PTK7.Fc (R and D Systems, catalog #9799-TK) (human, UniProt Q13308 31-704, limits assumed).
T2 construct: Bought reagent; also called soluble recombinant human PTK7.Fc; soluble antigen PTK7; not shown: Fc part of the bought fusion (detected with anti-human Fc)
T2 sequence (looked up): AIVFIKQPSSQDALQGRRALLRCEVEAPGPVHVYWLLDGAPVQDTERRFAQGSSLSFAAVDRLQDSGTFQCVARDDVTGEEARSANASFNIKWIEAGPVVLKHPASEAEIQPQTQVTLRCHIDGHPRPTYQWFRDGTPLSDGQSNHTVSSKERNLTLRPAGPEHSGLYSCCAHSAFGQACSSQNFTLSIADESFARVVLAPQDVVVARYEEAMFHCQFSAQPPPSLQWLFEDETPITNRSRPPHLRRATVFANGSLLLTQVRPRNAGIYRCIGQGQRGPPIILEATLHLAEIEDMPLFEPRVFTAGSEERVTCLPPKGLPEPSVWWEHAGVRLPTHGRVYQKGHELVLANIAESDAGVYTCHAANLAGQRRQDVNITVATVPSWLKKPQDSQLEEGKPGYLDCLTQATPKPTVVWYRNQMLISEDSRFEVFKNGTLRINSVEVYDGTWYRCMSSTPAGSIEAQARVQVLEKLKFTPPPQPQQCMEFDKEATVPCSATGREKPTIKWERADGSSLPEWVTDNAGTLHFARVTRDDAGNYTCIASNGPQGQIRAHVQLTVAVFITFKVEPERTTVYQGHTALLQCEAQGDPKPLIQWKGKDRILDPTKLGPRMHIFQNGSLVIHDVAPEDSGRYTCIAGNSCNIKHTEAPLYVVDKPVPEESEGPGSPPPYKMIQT
Briefly: flow cytometry, percent of CAR T cells positive for 10 ug/mL PTK7.Fc. On the procedure:
In addition to detecting surface CAR expression, the ability of the CAR T cells and masked CAR T cells to detect target antigen was also determined. Live CAR T cells were gated by their forward scatter (FSC) and side scatter (SSC) profiles, and with DAPI dye (Invitrogen, catalog #: D3571). The cells were then stained with 10 μg/mL recombinant human PTK7.Fc (R and D Systems, catalog #9799-TK Lot DHMCO219041) as described above in Example 3, and with mouse anti-human.Fc conjugated to APC (Biolegend cat #409305) as secondary antibody for detection (FIG. 3).

The target in assay [3] is T3, PTK7 on PTK7 positive cell line SaOS-2 (osteosarcoma) (UniProt Q13308 31-1070, limits assumed).
T3 sequence (looked up): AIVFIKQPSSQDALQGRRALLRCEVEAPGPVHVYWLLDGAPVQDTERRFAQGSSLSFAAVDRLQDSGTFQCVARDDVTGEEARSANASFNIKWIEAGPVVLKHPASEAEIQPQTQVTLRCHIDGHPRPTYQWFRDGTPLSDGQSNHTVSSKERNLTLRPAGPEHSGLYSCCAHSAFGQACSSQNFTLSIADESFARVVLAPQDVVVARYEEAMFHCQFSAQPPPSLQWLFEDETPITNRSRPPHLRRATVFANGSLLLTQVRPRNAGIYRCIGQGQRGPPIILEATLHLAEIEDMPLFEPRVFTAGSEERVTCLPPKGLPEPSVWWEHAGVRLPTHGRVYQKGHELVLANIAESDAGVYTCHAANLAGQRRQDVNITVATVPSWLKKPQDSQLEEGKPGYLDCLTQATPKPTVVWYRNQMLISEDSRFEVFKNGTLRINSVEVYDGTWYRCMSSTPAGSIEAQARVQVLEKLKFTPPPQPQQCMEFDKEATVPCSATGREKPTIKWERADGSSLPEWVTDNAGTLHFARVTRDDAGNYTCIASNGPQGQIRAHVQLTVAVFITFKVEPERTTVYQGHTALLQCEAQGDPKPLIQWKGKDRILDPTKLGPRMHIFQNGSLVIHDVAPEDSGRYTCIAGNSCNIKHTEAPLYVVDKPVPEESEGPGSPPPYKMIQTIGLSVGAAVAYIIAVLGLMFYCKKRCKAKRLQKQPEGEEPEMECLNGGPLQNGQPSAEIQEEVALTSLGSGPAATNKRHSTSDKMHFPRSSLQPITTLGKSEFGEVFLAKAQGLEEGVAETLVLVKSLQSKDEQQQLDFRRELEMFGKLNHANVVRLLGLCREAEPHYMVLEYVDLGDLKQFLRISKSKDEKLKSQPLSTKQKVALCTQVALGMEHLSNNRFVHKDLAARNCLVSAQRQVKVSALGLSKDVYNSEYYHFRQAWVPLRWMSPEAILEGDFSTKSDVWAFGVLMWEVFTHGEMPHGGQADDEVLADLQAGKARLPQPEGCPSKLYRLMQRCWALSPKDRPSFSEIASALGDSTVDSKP
As to the kind of experiment: cell-based or functional assay.

The target in assay [4] is T3, PTK7 on PTK7 positive cell line SaOS-2 …. Briefly: cell-based or functional assay. This is another data set of the same source.

B1: mask peptide M4 (peptide)
peptide: CTFPNTTMQRTFC
notes: Found by phage display (Screen 2); in the masked constructs preceded by QG and fused through a cleavable linker
B1: the binding result in assay [1] was “binds”.

B2: mask peptide M7 (peptide)
peptide: CTMPYHIHSIGLC
notes: as for B1
Consider B2, for which the binding result in assay [1] is reported as “binds”.

B3: mask peptide M8 (peptide)
peptide: WCTIPSSMSIRLC
notes: as for B1
With B3, in assay [1], the binding result is on record as “binds”.

B4: CTX181.M9 (other)
chain: QGCHIGKRPVPCLWIGSSGGSGGSGGSGGGPLGLAGGSSGQVQLVESGGGVVQPGRSLRLSCAASGFTFSSYGMHWVRQAPGKGLEWVAVIWDDGSNKYYVDSVKGRFTISRDNSKNTLYLQMNSLRAEDTAVYYCARDDYYGSGSFNSYYGTDVWGQGTTVTVSSGGGGSGGGGSGGGGSEIVLTQSPATLSLSPGERATLSCRASQSVSIYLAWYQQKPGQAPRLLIYDASNRATGIPARFSGSGSGTDFTLTISSLEPEDFAVYYCQQRSNWPPFTFGPGTKVDIKSAAAFVPVFLPAKPTTTPAPRPPTPAPTIASQPLSLRPEACRPAAGGAVHTRGLDFACDIYIWAPLAGTCGVLLLSLVITLYCNHRNRSKRSRLLHSDYMNMTPRRPGPTRKHYQPYAPPRDFAAYRSRVKFSRSADAPAYQQGQNQLYNELNLGRREEYDVLDKRRGRDPEMGGKPRRKNPQEGLYNELQKDKMAEAYSEIGMKGERRRGKGHDGLYQGLSTATKDTYDALHMQALPPR
notes: Masked chimeric antigen receptor on the surface of TRAC-/B2M- human T cells; entry without signal peptide
Regarding B4, the “% Antigen detection” value in assay [2] was 35.1%.

B5: mask peptide M9 (peptide)
peptide: CHIGKRPVPCLWI
notes: as for B1
As to B5, the binding result in assay [1] was “binds”.

B6: mask peptide M5 (peptide)
peptide: CTYPSWVAYIRFC
notes: as for B1
Regarding B6, the binding result in assay [1] was “binds”.

B7: CTX181 (unmasked CAR) (other)
chain: QVQLVESGGGVVQPGRSLRLSCAASGFTFSSYGMHWVRQAPGKGLEWVAVIWDDGSNKYYVDSVKGRFTISRDNSKNTLYLQMNSLRAEDTAVYYCARDDYYGSGSFNSYYGTDVWGQGTTVTVSSGGGGSGGGGSGGGGSEIVLTQSPATLSLSPGERATLSCRASQSVSIYLAWYQQKPGQAPRLLIYDASNRATGIPARFSGSGSGTDFTLTISSLEPEDFAVYYCQQRSNWPPFTFGPGTKVDIKSAAAFVPVFLPAKPTTTPAPRPPTPAPTIASQPLSLRPEACRPAAGGAVHTRGLDFACDIYIWAPLAGTCGVLLLSLVITLYCNHRNRKRGRKKLLYIFKQPFMRPVQTTQEEDGCSCRFPEEEEGGCELRVKFSRSADAPAYQQGQNQLYNELNLGRREEYDVLDKRRGRDPEMGGKPRRKNPQEGLYNELQKDKMAEAYSEIGMKGERRRGKGHDGLYQGLSTATKDTYDALHMQALPPR
notes: Chimeric antigen receptor (Ab181 scFv) on the surface of TRAC-/B2M- human T cells; entry without signal peptide; also called anti-PTK7 CAR; unmasked CAR CTX181
In the case of B7, in assay [3], the “IFNγ (pg/mL) at E:T = 1:0.5” value stood at 22300 pg/mL and the “IFNγ (pg/mL) at E:T = 1:1” value was 34900 pg/mL. In assay [2], the “% Antigen detection” value worked out at 61.9%. For the same molecule, in assay [4], the “% Cell killing at E:T = 1:0.5” value is 97.1% and the “% Cell killing at E:T = 1:1” value came out at 96.6%.

B8: mask peptide M12 (peptide)
peptide: CTMPVHTYSQWLC
notes: as for B1
Turning to B8, the binding result in assay [1] was “binds”.

B9: mask peptide M13 (peptide)
peptide: CTYPPRFHMHWLC
notes: as for B1
On to B9, for which the binding result in assay [1] was “binds”.

B10: mask peptide M6 (peptide)
peptide: VCTYPPAHRTRFC
notes: as for B1
Regarding B10, the binding result in assay [1] is recorded as “binds”.

B11: mask peptide M11 (peptide)
peptide: CTMPSHAVASFLC
notes: as for B1
As to B11, the binding result in assay [1] is on record as “binds”.

B12: mask peptide M14 (peptide)
peptide: CTHVAQWAIKAFC
notes: as for B1
Consider B12, for which the binding result in assay [1] is “binds”.

B13: CTX181.M3 (other)
chain: QGCTMPPSPRSKVICGSSGGSGGSGGSGGGPLGLAGGSSGQVQLVESGGGVVQPGRSLRLSCAASGFTFSSYGMHWVRQAPGKGLEWVAVIWDDGSNKYYVDSVKGRFTISRDNSKNTLYLQMNSLRAEDTAVYYCARDDYYGSGSFNSYYGTDVWGQGTTVTVSSGGGGSGGGGSGGGGSEIVLTQSPATLSLSPGERATLSCRASQSVSIYLAWYQQKPGQAPRLLIYDASNRATGIPARFSGSGSGTDFTLTISSLEPEDFAVYYCQQRSNWPPFTFGPGTKVDIKSAAAFVPVFLPAKPTTTPAPRPPTPAPTIASQPLSLRPEACRPAAGGAVHTRGLDFACDIYIWAPLAGTCGVLLLSLVITLYCNHRNRSKRSRLLHSDYMNMTPRRPGPTRKHYQPYAPPRDFAAYRSRVKFSRSADAPAYQQGQNQLYNELNLGRREEYDVLDKRRGRDPEMGGKPRRKNPQEGLYNELQKDKMAEAYSEIGMKGERRRGKGHDGLYQGLSTATKDTYDALHMQALPPR
With B13, in assay [3], the “IFNγ (pg/mL) at E:T = 1:0.5” value amounted to 833 pg/mL and the “IFNγ (pg/mL) at E:T = 1:1” value turned out to be 799 pg/mL. Further, in assay [4], the “% Cell killing at E:T = 1:0.5” value was 39% and the “% Cell killing at E:T = 1:1” value was found to be 17.8%.

B14: CTX181.M12 (other)
chain: QGCTMPVHTYSQWLCGSSGGSGGSGGSGGGPLGLAGGSSGQVQLVESGGGVVQPGRSLRLSCAASGFTFSSYGMHWVRQAPGKGLEWVAVIWDDGSNKYYVDSVKGRFTISRDNSKNTLYLQMNSLRAEDTAVYYCARDDYYGSGSFNSYYGTDVWGQGTTVTVSSGGGGSGGGGSGGGGSEIVLTQSPATLSLSPGERATLSCRASQSVSIYLAWYQQKPGQAPRLLIYDASNRATGIPARFSGSGSGTDFTLTISSLEPEDFAVYYCQQRSNWPPFTFGPGTKVDIKSAAAFVPVFLPAKPTTTPAPRPPTPAPTIASQPLSLRPEACRPAAGGAVHTRGLDFACDIYIWAPLAGTCGVLLLSLVITLYCNHRNRSKRSRLLHSDYMNMTPRRPGPTRKHYQPYAPPRDFAAYRSRVKFSRSADAPAYQQGQNQLYNELNLGRREEYDVLDKRRGRDPEMGGKPRRKNPQEGLYNELQKDKMAEAYSEIGMKGERRRGKGHDGLYQGLSTATKDTYDALHMQALPPR
With B14, in assay [3], the “IFNγ (pg/mL) at E:T = 1:0.5” value is 2420 pg/mL and the “IFNγ (pg/mL) at E:T = 1:1” value amounted to 1770 pg/mL. Moreover, in assay [4], the “% Cell killing at E:T = 1:0.5” value stood at 29.5% and the “% Cell killing at E:T = 1:1” value was 18.5%.

B15: mask peptide M3 (peptide)
peptide: CTMPPSPRSKVIC
notes: as for B1
On to B15, for which, in assay [1], the binding result is given as “binds”.

B16: mask peptide M10 (peptide)
peptide: CYIGLRMVPCFHM
notes: as for B1
For the molecule B16, in assay [1], the binding result is on record as “binds”.

The record behind these values is US20210347913A1 (CRISPR THERAPEUTICS, published 2021).
